Test results published in patent US20140348785A1 (published 2014).

molecular target: soluble gp41 MPER peptide RRR-(656-683)-RRR; test: kinetic binding (ka/kd)

| Binder | Kd [nM] |
| --- | --- |
| G52cA (heavy chain) (antibody, V domains shown) VH: EVQLVESGGGLVKPGGSLRLSCSASGFDFDNAWMTWVRQPPGKGLEWVGRITGPAEGWSVDYAAPVEGRFTISRLNSINFLYLEMNNLRMEDSGLYFCARTGKYYDFWSGYPPGEEYFQDWGRGTLVTVSS VL: SYELTQETGVSVALGRTVTITCRGDSLRSHYASWYQKKPGQAPILLFYGKNNRPSGVPDRFSGSASGNRASLTISGAQAEDDAEYYCSSRDKSGSRLSVFGGGTKLTVL | 11.1 |
| Y98A (heavy chain) (antibody, V domains shown) VH: EVQLVESGGGLVKPGGSLRLSCSASGFDFDNAWMTWVRQPPGKGLEWVGRITGPGEGWSVDYAAPVEGRFTISRLNSINFLYLEMNNLRMEDSGLYFCARTGKAYDFWSGYPPGEEYFQDWGRGTLVTVSS VL: SYELTQETGVSVALGRTVTITCRGDSLRSHYASWYQKKPGQAPILLFYGKNNRPSGVPDRFSGSASGNRASLTISGAQAEDDAEYYCSSRDKSGSRLSVFGGGTKLTVL | 27 |
| P100fA (heavy chain) (antibody, V domains shown) VH: EVQLVESGGGLVKPGGSLRLSCSASGFDFDNAWMTWVRQPPGKGLEWVGRITGPGEGWSVDYAAPVEGRFTISRLNSINFLYLEMNNLRMEDSGLYFCARTGKYYDFWSGYAPGEEYFQDWGRGTLVTVSS VL: SYELTQETGVSVALGRTVTITCRGDSLRSHYASWYQKKPGQAPILLFYGKNNRPSGVPDRFSGSASGNRASLTISGAQAEDDAEYYCSSRDKSGSRLSVFGGGTKLTVL | 757 |
| E100iA (heavy chain) (antibody, V domains shown) VH: EVQLVESGGGLVKPGGSLRLSCSASGFDFDNAWMTWVRQPPGKGLEWVGRITGPGEGWSVDYAAPVEGRFTISRLNSINFLYLEMNNLRMEDSGLYFCARTGKYYDFWSGYPPGAEYFQDWGRGTLVTVSS VL: SYELTQETGVSVALGRTVTITCRGDSLRSHYASWYQKKPGQAPILLFYGKNNRPSGVPDRFSGSASGNRASLTISGAQAEDDAEYYCSSRDKSGSRLSVFGGGTKLTVL | 433 |
| D28A (heavy chain) (antibody, V domains shown) VH: EVQLVESGGGLVKPGGSLRLSCSASGFAFDNAWMTWVRQPPGKGLEWVGRITGPGEGWSVDYAAPVEGRFTISRLNSINFLYLEMNNLRMEDSGLYFCARTGKYYDFWSGYPPGEEYFQDWGRGTLVTVSS VL: SYELTQETGVSVALGRTVTITCRGDSLRSHYASWYQKKPGQAPILLFYGKNNRPSGVPDRFSGSASGNRASLTISGAQAEDDAEYYCSSRDKSGSRLSVFGGGTKLTVL | 14.3 |
| R95bA (light chain) (antibody, V domains shown) VH: EVQLVESGGGLVKPGGSLRLSCSASGFDFDNAWMTWVRQPPGKGLEWVGRITGPGEGWSVDYAAPVEGRFTISRLNSINFLYLEMNNLRMEDSGLYFCARTGKYYDFWSGYPPGEEYFQDWGRGTLVTVSS VL: SYELTQETGVSVALGRTVTITCRGDSLRSHYASWYQKKPGQAPILLFYGKNNRPSGVPDRFSGSASGNRASLTISGAQAEDDAEYYCSSRDKSGSALSVFGGGTKLTVL | 28.6 |
| 10E8 IgG alanine variant E53A (heavy chain, Kabat) (antibody, V domains shown) VH: EVQLVESGGGLVKPGGSLRLSCSASGFDFDNAWMTWVRQPPGKGLEWVGRITGPGAGWSVDYAAPVEGRFTISRLNSINFLYLEMNNLRMEDSGLYFCARTGKYYDFWSGYPPGEEYFQDWGRGTLVTVSS VL: SYELTQETGVSVALGRTVTITCRGDSLRSHYASWYQKKPGQAPILLFYGKNNRPSGVPDRFSGSASGNRASLTISGAQAEDDAEYYCSSRDKSGSRLSVFGGGTKLTVL | 395 |
| G100dA (heavy chain) (antibody, V domains shown) VH: EVQLVESGGGLVKPGGSLRLSCSASGFDFDNAWMTWVRQPPGKGLEWVGRITGPGEGWSVDYAAPVEGRFTISRLNSINFLYLEMNNLRMEDSGLYFCARTGKYYDFWSAYPPGEEYFQDWGRGTLVTVSS VL: SYELTQETGVSVALGRTVTITCRGDSLRSHYASWYQKKPGQAPILLFYGKNNRPSGVPDRFSGSASGNRASLTISGAQAEDDAEYYCSSRDKSGSRLSVFGGGTKLTVL | 315 |
| S100cA (heavy chain) (antibody, V domains shown) VH: EVQLVESGGGLVKPGGSLRLSCSASGFDFDNAWMTWVRQPPGKGLEWVGRITGPGEGWSVDYAAPVEGRFTISRLNSINFLYLEMNNLRMEDSGLYFCARTGKYYDFWAGYPPGEEYFQDWGRGTLVTVSS VL: SYELTQETGVSVALGRTVTITCRGDSLRSHYASWYQKKPGQAPILLFYGKNNRPSGVPDRFSGSASGNRASLTISGAQAEDDAEYYCSSRDKSGSRLSVFGGGTKLTVL | 9.65 |
| W100bA (heavy chain) (antibody, V domains shown) VH: EVQLVESGGGLVKPGGSLRLSCSASGFDFDNAWMTWVRQPPGKGLEWVGRITGPGEGWSVDYAAPVEGRFTISRLNSINFLYLEMNNLRMEDSGLYFCARTGKYYDFASGYPPGEEYFQDWGRGTLVTVSS VL: SYELTQETGVSVALGRTVTITCRGDSLRSHYASWYQKKPGQAPILLFYGKNNRPSGVPDRFSGSASGNRASLTISGAQAEDDAEYYCSSRDKSGSRLSVFGGGTKLTVL | 93.1 |
| S56A (heavy chain) (antibody, V domains shown) VH: EVQLVESGGGLVKPGGSLRLSCSASGFDFDNAWMTWVRQPPGKGLEWVGRITGPGEGWAVDYAAPVEGRFTISRLNSINFLYLEMNNLRMEDSGLYFCARTGKYYDFWSGYPPGEEYFQDWGRGTLVTVSS VL: SYELTQETGVSVALGRTVTITCRGDSLRSHYASWYQKKPGQAPILLFYGKNNRPSGVPDRFSGSASGNRASLTISGAQAEDDAEYYCSSRDKSGSRLSVFGGGTKLTVL | 10.9 |
| N31A (heavy chain) (antibody, V domains shown) VH: EVQLVESGGGLVKPGGSLRLSCSASGFDFDAAWMTWVRQPPGKGLEWVGRITGPGEGWSVDYAAPVEGRFTISRLNSINFLYLEMNNLRMEDSGLYFCARTGKYYDFWSGYPPGEEYFQDWGRGTLVTVSS VL: SYELTQETGVSVALGRTVTITCRGDSLRSHYASWYQKKPGQAPILLFYGKNNRPSGVPDRFSGSASGNRASLTISGAQAEDDAEYYCSSRDKSGSRLSVFGGGTKLTVL | 13 |
| D30A (heavy chain) (antibody, V domains shown) VH: EVQLVESGGGLVKPGGSLRLSCSASGFDFANAWMTWVRQPPGKGLEWVGRITGPGEGWSVDYAAPVEGRFTISRLNSINFLYLEMNNLRMEDSGLYFCARTGKYYDFWSGYPPGEEYFQDWGRGTLVTVSS VL: SYELTQETGVSVALGRTVTITCRGDSLRSHYASWYQKKPGQAPILLFYGKNNRPSGVPDRFSGSASGNRASLTISGAQAEDDAEYYCSSRDKSGSRLSVFGGGTKLTVL | 11.8 |
| F100aA (heavy chain) (antibody, V domains shown) VH: EVQLVESGGGLVKPGGSLRLSCSASGFDFDNAWMTWVRQPPGKGLEWVGRITGPGEGWSVDYAAPVEGRFTISRLNSINFLYLEMNNLRMEDSGLYFCARTGKYYDAWSGYPPGEEYFQDWGRGTLVTVSS VL: SYELTQETGVSVALGRTVTITCRGDSLRSHYASWYQKKPGQAPILLFYGKNNRPSGVPDRFSGSASGNRASLTISGAQAEDDAEYYCSSRDKSGSRLSVFGGGTKLTVL | 429 |
| Y100eA (heavy chain) (antibody, V domains shown) VH: EVQLVESGGGLVKPGGSLRLSCSASGFDFDNAWMTWVRQPPGKGLEWVGRITGPGEGWSVDYAAPVEGRFTISRLNSINFLYLEMNNLRMEDSGLYFCARTGKYYDFWSGAPPGEEYFQDWGRGTLVTVSS VL: SYELTQETGVSVALGRTVTITCRGDSLRSHYASWYQKKPGQAPILLFYGKNNRPSGVPDRFSGSASGNRASLTISGAQAEDDAEYYCSSRDKSGSRLSVFGGGTKLTVL | 75.9 |
| K97A (heavy chain) (antibody, V domains shown) VH: EVQLVESGGGLVKPGGSLRLSCSASGFDFDNAWMTWVRQPPGKGLEWVGRITGPGEGWSVDYAAPVEGRFTISRLNSINFLYLEMNNLRMEDSGLYFCARTGAYYDFWSGYPPGEEYFQDWGRGTLVTVSS VL: SYELTQETGVSVALGRTVTITCRGDSLRSHYASWYQKKPGQAPILLFYGKNNRPSGVPDRFSGSASGNRASLTISGAQAEDDAEYYCSSRDKSGSRLSVFGGGTKLTVL | 24.8 |
| T52A (heavy chain) (antibody, V domains shown) VH: EVQLVESGGGLVKPGGSLRLSCSASGFDFDNAWMTWVRQPPGKGLEWVGRIAGPGEGWSVDYAAPVEGRFTISRLNSINFLYLEMNNLRMEDSGLYFCARTGKYYDFWSGYPPGEEYFQDWGRGTLVTVSS VL: SYELTQETGVSVALGRTVTITCRGDSLRSHYASWYQKKPGQAPILLFYGKNNRPSGVPDRFSGSASGNRASLTISGAQAEDDAEYYCSSRDKSGSRLSVFGGGTKLTVL | 10.9 |
| P100gA (heavy chain) (antibody, V domains shown) VH: EVQLVESGGGLVKPGGSLRLSCSASGFDFDNAWMTWVRQPPGKGLEWVGRITGPGEGWSVDYAAPVEGRFTISRLNSINFLYLEMNNLRMEDSGLYFCARTGKYYDFWSGYPAGEEYFQDWGRGTLVTVSS VL: SYELTQETGVSVALGRTVTITCRGDSLRSHYASWYQKKPGQAPILLFYGKNNRPSGVPDRFSGSASGNRASLTISGAQAEDDAEYYCSSRDKSGSRLSVFGGGTKLTVL | 691 |
| D58A (heavy chain) (antibody, V domains shown) VH: EVQLVESGGGLVKPGGSLRLSCSASGFDFDNAWMTWVRQPPGKGLEWVGRITGPGEGWSVAYAAPVEGRFTISRLNSINFLYLEMNNLRMEDSGLYFCARTGKYYDFWSGYPPGEEYFQDWGRGTLVTVSS VL: SYELTQETGVSVALGRTVTITCRGDSLRSHYASWYQKKPGQAPILLFYGKNNRPSGVPDRFSGSASGNRASLTISGAQAEDDAEYYCSSRDKSGSRLSVFGGGTKLTVL | 30.6 |
| E100jA (heavy chain) (antibody, V domains shown) VH: EVQLVESGGGLVKPGGSLRLSCSASGFDFDNAWMTWVRQPPGKGLEWVGRITGPGEGWSVDYAAPVEGRFTISRLNSINFLYLEMNNLRMEDSGLYFCARTGKYYDFWSGYPPGEAYFQDWGRGTLVTVSS VL: SYELTQETGVSVALGRTVTITCRGDSLRSHYASWYQKKPGQAPILLFYGKNNRPSGVPDRFSGSASGNRASLTISGAQAEDDAEYYCSSRDKSGSRLSVFGGGTKLTVL | 361 |

molecular target: soluble gp41 MPER peptide RRR-(656-683)-RRR; test: kinetic binding (ka/kd); mean of three runs

| Binder | Kd [nM] |
| --- | --- |
| 10E8 monoclonal antibody (full-length IgG) (antibody, V domains shown) VH: EVQLVESGGGLVKPGGSLRLSCSASGFDFDNAWMTWVRQPPGKGLEWVGRITGPGEGWSVDYAAPVEGRFTISRLNSINFLYLEMNNLRMEDSGLYFCARTGKYYDFWSGYPPGEEYFQDWGRGTLVTVSS VL: SYELTQETGVSVALGRTVTITCRGDSLRSHYASWYQKKPGQAPILLFYGKNNRPSGVPDRFSGSASGNRASLTISGAQAEDDAEYYCSSRDKSGSRLSVFGGGTKLTVL | 6.08 |
